These results are taken from the supplement of paper PMC9112550, “Optimization of the antimicrobial peptide Bac7 by deep mutational scanning” (BMC Biology, 2022).

The test system of the data set is Escherichia coli TOP10. Kind of data set: shrunken log2 fold change of peptide-encoding DNA abundance (4.5 h post-induction vs induction); higher = less antimicrobial activity (less host growth inhibition). Particulars: time post-induction: 4.5 h; library: site-saturation at positions 5, 18, 19, 20.
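Also: peptides expressed intracellularly from a pBAD plasmid library in pooled LB shake-flask culture, induced with 0.3% L-arabinose, DNA abundance read by NGS, three biological replicates, DESeq2 with apeglm shrinkage.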

As for RRIRTRPPRLPRPRPRPFDQPRP, the “shrunken log2 fold change” value was determined as 0.176.

For the sequence RRIRFRPPRLPRPRPRPFFHPRP, the “shrunken log2 fold change” value was -0.18.

Consider RRIRVRPPRLPRPRPRPAATPRP, for which the “shrunken log2 fold change” value was 0.609.

For the sequence RRIRLRPPRLPRPRPRPIMGPRP, the “shrunken log2 fold change” value was -0.0219.

For RRIRERPPRLPRPRPRPHKWPRP, the “shrunken log2 fold change” value is -0.0895.

Take RRIRGRPPRLPRPRPRPAWFPRP: the “shrunken log2 fold change” value was found to be 0.652.

Consider RRIRNRPPRLPRPRPRPCWDPRP, for which the “shrunken log2 fold change” value came out at 0.125.

RRIRARPPRLPRPRPRPTHMPRP: the “shrunken log2 fold change” value is 0.156.

As to RRIRARPPRLPRPRPRPQPCPRP, the “shrunken log2 fold change” value turned out to be 0.276.

For the sequence RRIRKRPPRLPRPRPRPPTVPRP, the “shrunken log2 fold change” value was found to be 0.266.

With RRIRPRPPRLPRPRPRPTEMPRP, the “shrunken log2 fold change” value is 0.218.

Consider RRIRRRPPRLPRPRPRPAHQPRP, for which the “shrunken log2 fold change” value worked out at 0.732.

For RRIRSRPPRLPRPRPRPDQRPRP, the “shrunken log2 fold change” value came to 0.0901.

For the sequence RRIRPRPPRLPRPRPRPDPPPRP, the “shrunken log2 fold change” value turned out to be 0.249.

For the sequence RRIRHRPPRLPRPRPRPSMAPRP, the “shrunken log2 fold change” value was found to be 0.231.

For the sequence RRIRNRPPRLPRPRPRPFVEPRP, the “shrunken log2 fold change” value was -0.12.

For RRIRHRPPRLPRPRPRPIDIPRP, the “shrunken log2 fold change” value is -0.326.

RRIRNRPPRLPRPRPRPGDYPRP: the “shrunken log2 fold change” value came to 0.0582.

With RRIRMRPPRLPRPRPRPMHCPRP, the “shrunken log2 fold change” value was 0.0428.

RRIRSRPPRLPRPRPRPIYMPRP: the “shrunken log2 fold change” value was -0.533.

Consider RRIRSRPPRLPRPRPRPITAPRP, for which the “shrunken log2 fold change” value is -0.0161.

For RRIRERPPRLPRPRPRPTLIPRP, the “shrunken log2 fold change” value came to 0.0112.

Take RRIRTRPPRLPRPRPRPIITPRP: the “shrunken log2 fold change” value is -0.645.

RRIRDRPPRLPRPRPRPNTWPRP: the “shrunken log2 fold change” value is 0.23.

Consider RRIRMRPPRLPRPRPRPFETPRP, for which the “shrunken log2 fold change” value is -0.00884.

In the case of RRIRVRPPRLPRPRPRPVKGPRP, the “shrunken log2 fold change” value was -0.0226.

On to RRIRLRPPRLPRPRPRPFKCPRP, for which the “shrunken log2 fold change” value is 2.83.

As for RRIRDRPPRLPRPRPRPNGGPRP, the “shrunken log2 fold change” value is -0.0647.

Regarding RRIRCRPPRLPRPRPRPAQLPRP, the “shrunken log2 fold change” value was -0.169.

For RRIRKRPPRLPRPRPRPVETPRP, the “shrunken log2 fold change” value was determined as 0.416.

Turning to RRIRARPPRLPRPRPRPSWCPRP, the “shrunken log2 fold change” value is -0.207.

With RRIRFRPPRLPRPRPRPQPGPRP, the “shrunken log2 fold change” value came out at 0.152.

RRIRSRPPRLPRPRPRPYQFPRP: the “shrunken log2 fold change” value was 0.0245.

RRIRARPPRLPRPRPRPPRIPRP: the “shrunken log2 fold change” value came to 0.827.

On to RRIRWRPPRLPRPRPRPDTMPRP, for which the “shrunken log2 fold change” value turned out to be 0.19.

As for RRIRPRPPRLPRPRPRPSFKPRP, the “shrunken log2 fold change” value was -0.123.

In the case of RRIRIRPPRLPRPRPRPAFHPRP, the “shrunken log2 fold change” value is -0.2.

Take RRIRMRPPRLPRPRPRPPQFPRP: the “shrunken log2 fold change” value is 0.0882.

For the sequence RRIRGRPPRLPRPRPRPYCSPRP, the “shrunken log2 fold change” value was -0.0241.

For the sequence RRIRRRPPRLPRPRPRPNGAPRP, the “shrunken log2 fold change” value was -0.151.

For RRIRPRPPRLPRPRPRPHFKPRP, the “shrunken log2 fold change” value came out at 1.37.

Consider RRIRLRPPRLPRPRPRPCAFPRP, for which the “shrunken log2 fold change” value was -0.295.

For the sequence RRIRDRPPRLPRPRPRPSTHPRP, the “shrunken log2 fold change” value is -0.247.

Turning to RRIRIRPPRLPRPRPRPKWSPRP, the “shrunken log2 fold change” value was found to be 0.107.

Consider RRIRPRPPRLPRPRPRPPTQPRP, for which the “shrunken log2 fold change” value was found to be 0.12.

As to RRIRDRPPRLPRPRPRPMWIPRP, the “shrunken log2 fold change” value is -0.306.

Consider RRIRMRPPRLPRPRPRPVEAPRP, for which the “shrunken log2 fold change” value was 0.396.

Turning to RRIRERPPRLPRPRPRPKPYPRP, the “shrunken log2 fold change” value was 0.082.

Regarding RRIRWRPPRLPRPRPRPQFIPRP, the “shrunken log2 fold change” value was -0.211.

As for RRIRVRPPRLPRPRPRPGLWPRP, the “shrunken log2 fold change” value was 0.76.

With RRIRPRPPRLPRPRPRPKVSPRP, the “shrunken log2 fold change” value was 0.0436.

Regarding RRIRQRPPRLPRPRPRPEVTPRP, the “shrunken log2 fold change” value was -0.0614.

RRIRRRPPRLPRPRPRPIGGPRP: the “shrunken log2 fold change” value worked out at 0.205.

RRIRPRPPRLPRPRPRPVTHPRP: the “shrunken log2 fold change” value was -0.227.

Regarding RRIRWRPPRLPRPRPRPQRFPRP, the “shrunken log2 fold change” value amounted to 0.206.

For the sequence RRIRSRPPRLPRPRPRPEQHPRP, the “shrunken log2 fold change” value was -0.101.

On to RRIRSRPPRLPRPRPRPRQAPRP, for which the “shrunken log2 fold change” value was -0.0163.

Take RRIRRRPPRLPRPRPRPWMYPRP: the “shrunken log2 fold change” value is -0.305.

Take RRIRYRPPRLPRPRPRPEQGPRP: the “shrunken log2 fold change” value is -0.00197.

Regarding RRIRTRPPRLPRPRPRPRWLPRP, the “shrunken log2 fold change” value was 0.369.

On to RRIRYRPPRLPRPRPRPGHHPRP, for which the “shrunken log2 fold change” value is -0.132.

With RRIRWRPPRLPRPRPRPGEAPRP, the “shrunken log2 fold change” value was determined as 0.799.

For RRIRNRPPRLPRPRPRPATFPRP, the “shrunken log2 fold change” value is -0.441.

For the sequence RRIRVRPPRLPRPRPRPDKKPRP, the “shrunken log2 fold change” value is 0.135.

In the case of RRIRNRPPRLPRPRPRPAKHPRP, the “shrunken log2 fold change” value amounted to 0.027.

As for RRIRLRPPRLPRPRPRPRKFPRP, the “shrunken log2 fold change” value is -0.0381.

Consider RRIRARPPRLPRPRPRPVATPRP, for which the “shrunken log2 fold change” value stood at 0.982.

For RRIRLRPPRLPRPRPRPKPMPRP, the “shrunken log2 fold change” value turned out to be 0.964.

As to RRIRCRPPRLPRPRPRPQWKPRP, the “shrunken log2 fold change” value was -0.0376.

Regarding RRIRHRPPRLPRPRPRPSQHPRP, the “shrunken log2 fold change” value was -0.411.

On to RRIRFRPPRLPRPRPRPKIRPRP, for which the “shrunken log2 fold change” value is -0.226.

With RRIRTRPPRLPRPRPRPRRKPRP, the “shrunken log2 fold change” value came out at 0.0652.

RRIRQRPPRLPRPRPRPNNMPRP: the “shrunken log2 fold change” value was -0.378.

On to RRIRCRPPRLPRPRPRPCDMPRP, for which the “shrunken log2 fold change” value is -0.277.

RRIRERPPRLPRPRPRPCFRPRP: the “shrunken log2 fold change” value was -0.511.

Consider RRIRFRPPRLPRPRPRPHGAPRP, for which the “shrunken log2 fold change” value came to 0.109.

Take RRIRNRPPRLPRPRPRPSPGPRP: the “shrunken log2 fold change” value is 0.431.

Regarding RRIRMRPPRLPRPRPRPMIWPRP, the “shrunken log2 fold change” value worked out at 0.237.

Turning to RRIRDRPPRLPRPRPRPHMVPRP, the “shrunken log2 fold change” value was -0.195.

Consider RRIRLRPPRLPRPRPRPDFMPRP, for which the “shrunken log2 fold change” value was -0.277.

Consider RRIRQRPPRLPRPRPRPSQEPRP, for which the “shrunken log2 fold change” value is 0.0169.

As for RRIRCRPPRLPRPRPRPWYVPRP, the “shrunken log2 fold change” value is -0.461.

For RRIRMRPPRLPRPRPRPNLWPRP, the “shrunken log2 fold change” value was 0.119.

Take RRIRFRPPRLPRPRPRPIIYPRP: the “shrunken log2 fold change” value was -0.671.

Take RRIRFRPPRLPRPRPRPYMVPRP: the “shrunken log2 fold change” value is -0.953.

As for RRIRKRPPRLPRPRPRPGTYPRP, the “shrunken log2 fold change” value is -0.0508.

As to RRIRHRPPRLPRPRPRPAAPPRP, the “shrunken log2 fold change” value is 0.093.

As to RRIRARPPRLPRPRPRPHEGPRP, the “shrunken log2 fold change” value worked out at 0.148.

Turning to RRIRARPPRLPRPRPRPFKEPRP, the “shrunken log2 fold change” value is -0.0239.

As to RRIRRRPPRLPRPRPRPKSTPRP, the “shrunken log2 fold change” value stood at 0.18.

Regarding RRIRFRPPRLPRPRPRPLWKPRP, the “shrunken log2 fold change” value is -0.0606.

Consider RRIRPRPPRLPRPRPRPDGKPRP, for which the “shrunken log2 fold change” value was determined as 0.25.

RRIRPRPPRLPRPRPRPSAPPRP: the “shrunken log2 fold change” value stood at 0.017.

Regarding RRIRNRPPRLPRPRPRPQCQPRP, the “shrunken log2 fold change” value was -0.0453.

For the sequence RRIRVRPPRLPRPRPRPCYLPRP, the “shrunken log2 fold change” value was -0.56.

Turning to RRIRERPPRLPRPRPRPEDWPRP, the “shrunken log2 fold change” value worked out at 0.351.

Regarding RRIRMRPPRLPRPRPRPDNNPRP, the “shrunken log2 fold change” value is 0.274.

Regarding RRIRRRPPRLPRPRPRPDLWPRP, the “shrunken log2 fold change” value was 0.676.

For the sequence RRIRVRPPRLPRPRPRPLIHPRP, the “shrunken log2 fold change” value is -0.393.

RRIRVRPPRLPRPRPRPTWGPRP: the “shrunken log2 fold change” value came out at 0.436.

In the case of RRIRIRPPRLPRPRPRPFVQPRP, the “shrunken log2 fold change” value was -0.634.

In the case of RRIRLRPPRLPRPRPRPLDAPRP, the “shrunken log2 fold change” value was found to be 0.112.

RRIRPRPPRLPRPRPRPWNKPRP: the “shrunken log2 fold change” value turned out to be 0.163.

With RRIRPRPPRLPRPRPRPFVSPRP, the “shrunken log2 fold change” value is -0.443.

RRIRERPPRLPRPRPRPAVPPRP: the “shrunken log2 fold change” value was 0.0842.

Turning to RRIRDRPPRLPRPRPRPYRVPRP, the “shrunken log2 fold change” value was -0.0135.

On to RRIRRRPPRLPRPRPRPIVEPRP, for which the “shrunken log2 fold change” value was determined as 0.136.

Consider RRIRKRPPRLPRPRPRPESIPRP, for which the “shrunken log2 fold change” value stood at 0.235.

RRIRGRPPRLPRPRPRPPLCPRP: the “shrunken log2 fold change” value stood at 0.616.

As to RRIRWRPPRLPRPRPRPPHLPRP, the “shrunken log2 fold change” value turned out to be 0.0195.

Regarding RRIRVRPPRLPRPRPRPRTDPRP, the “shrunken log2 fold change” value was -0.191.

Take RRIRFRPPRLPRPRPRPDIQPRP: the “shrunken log2 fold change” value was -0.628.

On to RRIRYRPPRLPRPRPRPMFAPRP, for which the “shrunken log2 fold change” value was -0.117.

In the case of RRIRYRPPRLPRPRPRPTNYPRP, the “shrunken log2 fold change” value stood at 1.18.

As to RRIRRRPPRLPRPRPRPRYYPRP, the “shrunken log2 fold change” value was -0.438.

With RRIRFRPPRLPRPRPRPCCMPRP, the “shrunken log2 fold change” value was -0.579.

Turning to RRIRMRPPRLPRPRPRPWRDPRP, the “shrunken log2 fold change” value was found to be 0.518.

As for RRIRARPPRLPRPRPRPPLDPRP, the “shrunken log2 fold change” value worked out at 1.

Turning to RRIRLRPPRLPRPRPRPHRPPRP, the “shrunken log2 fold change” value is -0.189.

Regarding RRIRWRPPRLPRPRPRPCLAPRP, the “shrunken log2 fold change” value turned out to be 0.329.

For the sequence RRIRPRPPRLPRPRPRPLKGPRP, the “shrunken log2 fold change” value worked out at 0.045.

Consider RRIRTRPPRLPRPRPRPEMQPRP, for which the “shrunken log2 fold change” value is -0.00136.

Take RRIRARPPRLPRPRPRPITQPRP: the “shrunken log2 fold change” value is -0.0161.

Consider RRIRWRPPRLPRPRPRPYQPPRP, for which the “shrunken log2 fold change” value was -0.0963.

RRIRNRPPRLPRPRPRPASIPRP: the “shrunken log2 fold change” value is -0.0365.
